B1: Hairpin Ribozyme (parent)
chain: GUCCUCUUUCACGUGCGCGUGAAAGAGAGAAGUGAACCAGAGAAACACACGUUGUGGUAUAUUACCUGGUA

Results on 38 variants are retold here after the RNAGym collection of RNA variant scans (doi:10.7554/elife.80360).

This series covers variants of B1. The series can be described thus: self-cleavage, relative activity (ratio to wild type); higher = more cleavage; co-transcriptional.
In the case of GUUCUCUUUCACGUGCGCGUGAAAGAGAUAAGUGAACCAGAGAAACACACGUUGUGGUAUAUUACCUGGUA [C3U G29U], the self-cleavage is 0.117.

Take GUUCUCUUUCACGUGCGCGUGAAAGAGACAAGUGAACCAGAGAAACACACGUUGUGGUAUAUUACCUGGUA [C3U G29C]: the self-cleavage is 0.106.

As to GUUCUCUUUCACGUGCGCGUGAAUGAGAGAAGUGAACCAGAGAAACACACGUUGUGGUAUAUUACCUGGUA [C3U A24U], the self-cleavage was determined as 0.491.

With GUUCUCUUUCACGUGCGCGUGAAGGAGAGAAGUGAACCAGAGAAACACACGUUGUGGUAUAUUACCUGGUA [C3U A24G], the self-cleavage was found to be 0.494.

In the case of GUCAUCUUUCACGUGCGCGUGAAAGAGAGAAGUGAACCAGAGAAGCACACGUUGUGGUAUAUUACCUGGUA [C4A A45G], the self-cleavage was found to be 0.151.

With GUCAUCUUUCACGUGCGCGUGAAAGAGAGAAGUGAACCAGAGAAUCACACGUUGUGGUAUAUUACCUGGUA [C4A A45U], the self-cleavage stood at 0.148.

With GUUCUCUUUCACGUGCGCGUGAAAGAGAGAAGUGAACCAGAGAAACACACGUUGUGGUAUAUUUCCUGGUA [C3U A64U], the self-cleavage was found to be 0.238.

On to GUUCUCUUUCACGUGCGCGUGAAAGAGAGAAGUGAACCAGAGAAACACACGUUGUGGUAUAUUCCCUGGUA [C3U A64C], for which the self-cleavage was found to be 0.0981.

As to GUCAUCUUUCACGUGCGCGUGACAGAGAGAAGUGAACCAGAGAAACACACGUUGUGGUAUAUUACCUGGUA [C4A A23C], the self-cleavage was 0.222.

For GUUCUCUUUCACGUGCGCGUGAAAGAGAGAAGUCAACCAGAGAAACACACGUUGUGGUAUAUUACCUGGUA [C3U G34C], the self-cleavage came to 1.03.

In the case of GUUCUCUUGCACGUGCGCGUGAAAGAGAGAAGUGAACCAGAGAAACACACGUUGUGGUAUAUUACCUGGUA [C3U U9G], the self-cleavage came to 0.337.

GUUCUCAUUCACGUGCGCGUGAAAGAGAGAAGUGAACCAGAGAAACACACGUUGUGGUAUAUUACCUGGUA [C3U U7A]: the self-cleavage came out at 0.427.

For the variant GUUCUCUUUCACGUGCGCGUGAAAGAGAGAAGUGAACCAGAGAAACACACGUUGCGGUAUAUUACCUGGUA [C3U U55C], the self-cleavage came to 0.153.

Regarding GUUCUCUUUCACGUGCGCGUGAAAGAGAGAAGUGAACCAGAGAAACACACGUUAUGGUAUAUUACCUGGUA [C3U G54A], the self-cleavage was 0.251.

With GUUCUCUUUCAUGUGCGCGUGAAAGAGAGAAGUGAACCAGAGAAACACACGUUGUGGUAUAUUACCUGGUA [C3U C12U], the self-cleavage was found to be 0.345.

For GUUCUCUUUCACGUGCGCAUGAAAGAGAGAAGUGAACCAGAGAAACACACGUUGUGGUAUAUUACCUGGUA [C3U G19A], the self-cleavage came out at 0.443.

GUUCUCUUUCACGUGCGCCUGAAAGAGAGAAGUGAACCAGAGAAACACACGUUGUGGUAUAUUACCUGGUA [C3U G19C]: the self-cleavage worked out at 0.373.

In the case of GUUCUCUUUCACGUGCGCGUGAAAGAGAGAAGUGAACCAGAGAAACACACGUUGUGGUAUACUACCUGGUA [C3U U62C], the self-cleavage came to 0.23.

Turning to GUUCUCUUUCACGUGCGCGUGAAAGAGAGAAGUGAACCAGAGAAACACUCGUUGUGGUAUAUUACCUGGUA [C3U A49U], the self-cleavage is 0.214.

In the case of GUUCUCUUUCACGUGCGCGUGAAAGAGAGAAGUGAACAAGAGAAACACACGUUGUGGUAUAUUACCUGGUA [C3U C38A], the self-cleavage is 0.106.

For the variant GUUCUCUUUCACGUGCGCGUGAAAGAGAGAAGUGAACCAAAGAAACACACGUUGUGGUAUAUUACCUGGUA [C3U G40A], the self-cleavage was determined as 0.169.

Regarding GUCAUCUUUCACGUGCGCGUGAAAGAGAGAAGUGAACCAGAGAAACACACGUUGUGGUAUAUUACCUGGUA [C4A], the self-cleavage turned out to be 0.218.

GUUCUCUUUCACGUGCGCGUGAAAGAGAGAAGUGAACCAGACAAACACACGUUGUGGUAUAUUACCUGGUA [C3U G42C]: the self-cleavage is 0.218.

As for GUUCUCUUUCACGUGAGCGUGAAAGAGAGAAGUGAACCAGAGAAACACACGUUGUGGUAUAUUACCUGGUA [C3U C16A], the self-cleavage amounted to 0.462.

As for GUCAUCUUUCACGUGCGCGUGAAAGAGAGAAGUGAACCAGAGAAACACGCGUUGUGGUAUAUUACCUGGUA [C4A A49G], the self-cleavage amounted to 0.157.

In the case of GUCAUCUUUCACGUGCGCGUGAAAGAGAGAAGUGAACCAGAGAAACACCCGUUGUGGUAUAUUACCUGGUA [C4A A49C], the self-cleavage amounted to 0.213.

Take GUCAUCUUUCACGUGCGCGUGAAAGAGAGAAGUGAACCAGAGCAACACACGUUGUGGUAUAUUACCUGGUA [C4A A43C]: the self-cleavage was found to be 0.0588.

For the variant GUUCUCUUUCACGUGCGCGUGAAAGAGAGAAGUGAACCAGAGAAACACAUGUUGUGGUAUAUUACCUGGUA [C3U C50U], the self-cleavage was 0.187.

Take GUUCUCUUUCACGUGCGCGUGAAAGAGAGAAGUGAACCAGAGAAACACAGGUUGUGGUAUAUUACCUGGUA [C3U C50G]: the self-cleavage stood at 0.174.

Take GUUCUCUUUCACGAGCGCGUGAAAGAGAGAAGUGAACCAGAGAAACACACGUUGUGGUAUAUUACCUGGUA [C3U U14A]: the self-cleavage was 0.495.

For GUUCUCUUUCACGCGCGCGUGAAAGAGAGAAGUGAACCAGAGAAACACACGUUGUGGUAUAUUACCUGGUA [C3U U14C], the self-cleavage came out at 0.451.

For GUUCUCUUUCACGUGCGCGUGAAAGAGAGAAGUGAACCAGAGAAACACACGUUGUGGAAUAUUACCUGGUA [C3U U58A], the self-cleavage came out at 0.257.

As to GUUCGCUUUCACGUGCGCGUGAAAGAGAGAAGUGAACCAGAGAAACACACGUUGUGGUAUAUUACCUGGUA [C3U U5G], the self-cleavage came out at 0.318.

For GUCAUCUUUCACGUGCGCGUGUAAGAGAGAAGUGAACCAGAGAAACACACGUUGUGGUAUAUUACCUGGUA [C4A A22U], the self-cleavage was determined as 0.22.

Turning to GUCAUCUUUCACGUGCGCGUGCAAGAGAGAAGUGAACCAGAGAAACACACGUUGUGGUAUAUUACCUGGUA [C4A A22C], the self-cleavage amounted to 0.131.

Regarding GUCAUCUUUCACGUGCGCGUGGAAGAGAGAAGUGAACCAGAGAAACACACGUUGUGGUAUAUUACCUGGUA [C4A A22G], the self-cleavage is 0.222.

As to GUUCUCUUUCACGUGCGCGUGAAAGAGAGAAGUGAACCAGAGCAACACACGUUGUGGUAUAUUACCUGGUA [C3U A43C], the self-cleavage turned out to be 0.161.

GUUCUCUUUCACGUGCGCGUGAAAGAGAGAAGUGAACCAGAGAAACACACGUUGUGGUAUAUUACCUGAUA [C3U G69A]: the self-cleavage stood at 0.16.
